± gives the standard error. This sample holds only a part of the variants without activity.
B1: glmS ribozyme (parent)
chain: AUAAAAGCGCCAGAACUACAGAAAUGUAGUUGACGAGGAGGAGGUUUAUCGAAUUUUCGGCGGAUGCCUCCAAA

Variants of: B1
Assay: self-cleavage kobs at 2500 uM GlcN6P; higher = faster cleavage; RNA array
Details: with glucosamine-6-phosphate
Outline: (§1)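 Tiles of sequenced MiSeq chips were imaged over ~14 h at 37 °C. On them, barcoded ribozyme variants had been transcribed in situ by E. coli RNA polymerase and were tracked via a hybridised Cy3 probe while glucosamine-6-phosphate (40 μM to 10 mM) in HEPES/KCl/Mg(OAc)2 buffer flowed in. Per-tile medians, normalised to baseline and to non-cleaving reference variants, were fit to one- or two-exponential decays for kobs, and weighted Michaelis–Menten fits gave kcat and KM.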

Variant	self-cleavage kobs at 2500 uM GlcN6P
C8U A48U G60C	< 1e-05 s⁻¹
U30C G41C U45G	< 1e-05 s⁻¹
G7A A12G G44A U47G	< 1e-05 s⁻¹
G13A G32C U54C	0.000273 ± 9.2e-05 s⁻¹
G13U A42C C71G	< 1e-05 s⁻¹
G35U G41U G62A	< 1e-05 s⁻¹
G35U G60A C68U	< 1e-05 s⁻¹
G37C U45G U46G G60C A64C	< 1e-05 s⁻¹
G35A A52U U54A C61U C67G	< 1e-05 s⁻¹
A14U G29U A48U A53U G62U	< 1e-05 s⁻¹
A15G U47A C58G	4.72e-05 ± 1.4e-05 s⁻¹
A14U A15U U56A G59C G63C	< 1e-05 s⁻¹
A6C G13C U45C	< 1e-05 s⁻¹
G13A A15C C50G C70A	0.000129 ± 2.5e-05 s⁻¹
G43C U46G C58A	< 1e-05 s⁻¹
U45G C50U U55A	< 1e-05 s⁻¹
A12U A33U U49A C68A	< 1e-05 s⁻¹
U31G G38U A42U	< 1e-05 s⁻¹
C8U C11A G32A U56G	< 1e-05 s⁻¹
A6U C10A C11G G35U	< 1e-05 s⁻¹
A42G A48U A52G C70A	< 1e-05 s⁻¹

Variant	self-cleavage kobs at 2500 uM GlcN6P
A12U C50U U65C	< 1e-05 s⁻¹
G9U G66U U69G	< 1e-05 s⁻¹
C10U G60C G63U	< 1e-05 s⁻¹
A52G U57C C67U	0.000161 ± 7.8e-05 s⁻¹
C16A G66A C71G	5.24e-05 ± 2.5e-05 s⁻¹
U57A C61G C70G	3.93e-05 ± 1.9e-05 s⁻¹
A14U G44A C50A	< 1e-05 s⁻¹
A33U G43A U57C	< 1e-05 s⁻¹
A14G A36G U56G G59C G62U	< 1e-05 s⁻¹
A33U G35C C67G	< 1e-05 s⁻¹
U31C C34G G35U C68G	0.000147 ± 6.7e-05 s⁻¹
G9U G29U G35U G38C U45G U49A	< 1e-05 s⁻¹
G7U U57G G60U	< 1e-05 s⁻¹
A33G A53C C58A	< 1e-05 s⁻¹
G38C U46C U49A	< 1e-05 s⁻¹
C8U A15C G63C	< 1e-05 s⁻¹
G13U A15U U30G G59C	< 1e-05 s⁻¹
U49G U54G C68G	6.25e-05 ± 2.4e-05 s⁻¹
A6G A12G U54G A64U C70G	< 1e-05 s⁻¹
G13C A36C C71U	< 1e-05 s⁻¹
U31C C34G A39U A42G U47C C70A	< 1e-05 s⁻¹

Variant	self-cleavage kobs at 2500 uM GlcN6P
C16G G66A U69G	5.74e-05 ± 2.8e-05 s⁻¹
U30G A53U C58G	0.000116 ± 3.9e-05 s⁻¹
A12C G66U C70A	0.000107 ± 2.6e-05 s⁻¹
A15U C50G C70A	0.000427 ± 0.00013 s⁻¹
C10U A12U G63C C70A C71A	5.29e-05 ± 1.7e-05 s⁻¹
G35C C58G G60U U65C	< 1e-05 s⁻¹
G29C C34G G51U U54A U65A C70U	< 1e-05 s⁻¹
G32A A39C C50U	< 1e-05 s⁻¹
U46G U65A C67G	0.000131 ± 2.5e-05 s⁻¹
C8U C11G C58A	< 1e-05 s⁻¹
G35U U47A U55C	< 1e-05 s⁻¹
G9U G32C G41U U47G A52G U65G U69A	< 1e-05 s⁻¹
A6G U55A U57G C61A	< 1e-05 s⁻¹
A15U C58G C68U	6.36e-05 ± 2.9e-05 s⁻¹
G41U A42C C70U	0.000121 ± 2.6e-05 s⁻¹
G29C G35U G40U	< 1e-05 s⁻¹
C8U A15G G43A	< 1e-05 s⁻¹
G9U C16A C34A C50G	7.29e-05 ± 2.6e-05 s⁻¹
A6G G7U C70G	5.26e-05 ± 2.1e-05 s⁻¹
G38C C58G G60U	< 1e-05 s⁻¹
G32C C50U U69A	0.000245 ± 8.3e-05 s⁻¹

Variant	self-cleavage kobs at 2500 uM GlcN6P
C10U A36U G41U A42G U54G G59C	< 1e-05 s⁻¹
A14U G37C A42C	< 1e-05 s⁻¹
G7A G40A C71A	< 1e-05 s⁻¹
G26U U65A	0.00219 ± 0.00042 s⁻¹
G40A A53G C58A	0.000125 ± 3.1e-05 s⁻¹
G37U G38U A39C	< 1e-05 s⁻¹
G32C G37C U55C U65G	< 1e-05 s⁻¹
G29U G41U C67G	< 1e-05 s⁻¹
A14C G26U G62U C68U	< 1e-05 s⁻¹
A6U C10G C50G A52G U55A C68A	0.000313 ± 7.4e-05 s⁻¹
C11U G63A U65C	< 1e-05 s⁻¹
A14U G43C C68U	5.22e-05 ± 1.6e-05 s⁻¹
C8U G13A G51A	< 1e-05 s⁻¹
A15C G37U A39C G41A G63U G66C	< 1e-05 s⁻¹
G32U A42U C68A	< 1e-05 s⁻¹
A14U G29U G32C U56C C68A C70U	< 1e-05 s⁻¹
G35U U47A C61A	< 1e-05 s⁻¹
C10G A42U G62C	< 1e-05 s⁻¹

Variants of: B1
Assay: self-cleavage kobs at 10000 uM GlcN6P; higher = faster cleavage; RNA array
Details: with glucosamine-6-phosphate
Outline: as §1

Variant	self-cleavage kobs at 10000 uM GlcN6P
C8U A48U G60C	< 1e-05 s⁻¹
G35U G41U G62A	< 1e-05 s⁻¹
A14U G29U A48U A53U G62U	< 1e-05 s⁻¹
A12U A33U U49A C68A	< 1e-05 s⁻¹
A52G U57C C67U	0.000116 ± 2.5e-05 s⁻¹
U31C C34G G35U C68G	0.000118 ± 4.1e-05 s⁻¹

Reference: the supplement of paper PMC7125110
